The values below come from patent publication US20140206609A1 (Sanofi, published 2014).

Assay in all cases: cell-based or functional assay
The target in test [1] is T1, human GIP receptor (human) (UniProt P48546).
T1 sequence (looked up): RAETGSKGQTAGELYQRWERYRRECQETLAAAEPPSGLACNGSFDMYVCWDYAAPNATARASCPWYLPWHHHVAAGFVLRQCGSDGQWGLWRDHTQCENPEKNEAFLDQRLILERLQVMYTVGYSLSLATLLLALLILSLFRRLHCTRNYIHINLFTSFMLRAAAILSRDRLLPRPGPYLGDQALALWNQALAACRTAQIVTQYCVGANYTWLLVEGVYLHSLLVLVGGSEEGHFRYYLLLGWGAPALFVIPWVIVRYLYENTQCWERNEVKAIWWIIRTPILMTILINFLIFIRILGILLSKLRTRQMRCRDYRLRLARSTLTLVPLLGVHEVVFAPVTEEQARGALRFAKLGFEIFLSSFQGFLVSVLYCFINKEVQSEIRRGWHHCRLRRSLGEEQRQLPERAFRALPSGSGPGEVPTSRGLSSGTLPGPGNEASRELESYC

Test [2] addresses human GLP-1 receptor (human) (UniProt P43220).
For another test, the target named is human GLP-1 receptor (human, UniProt P43220 24-463).
The next test has as its target T2, human GIP receptor (human, UniProt P48546 22-466).
T2 sequence (looked up): T1 sequence (looked up)

One may read the EC50 as the midpoint of the concentration-response curve. Low readings indicate a more potent agent, high ones a less potent agent.

Sequence of human GLP-1 receptor (human) (P43220 24-463): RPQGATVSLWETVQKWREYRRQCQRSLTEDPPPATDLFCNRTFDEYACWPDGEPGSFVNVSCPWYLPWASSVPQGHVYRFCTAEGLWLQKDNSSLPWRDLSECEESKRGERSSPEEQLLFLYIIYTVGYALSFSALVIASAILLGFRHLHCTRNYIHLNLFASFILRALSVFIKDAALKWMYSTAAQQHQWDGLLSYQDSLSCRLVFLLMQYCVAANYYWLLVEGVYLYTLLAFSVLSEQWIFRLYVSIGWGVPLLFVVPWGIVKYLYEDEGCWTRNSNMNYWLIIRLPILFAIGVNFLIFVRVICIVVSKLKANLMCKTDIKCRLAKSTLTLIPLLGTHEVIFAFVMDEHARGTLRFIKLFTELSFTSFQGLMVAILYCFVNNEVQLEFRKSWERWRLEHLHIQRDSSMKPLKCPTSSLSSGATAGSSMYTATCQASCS
Sequence of human GLP-1 receptor (P43220 24-463): as above

In test [1], Tyr(1)Ile(12)-exendin-4 (peptide) registered an EC50 hGIP R [pM] of 93.9 pM. The EC50 hGLP-1 R [pM] in test [2] amounted to 1.3 pM.

In the test with human GLP-1 receptor, Tyr(1)Ile(12)-GLP1 (peptide) displayed an EC50 hGLP-1 R [pM] of 5 pM. For the same substance, the EC50 hGIP R [pM] with human GIP receptor was 3660 pM.

Turning to “natural GIP (glucose-dependent insulinotropic polypeptide) (from UniProt P09681 52-93) (ligand)”, the EC50 in test [1] came to 0.4 pM.
